Starred links: 1 amine or outer side, 2 acyl side, 3 side chain; linkers in the order of their positions; H or OH if unused. Positions of bridges follow the written chain, without caps; N, C: chain ends. Non-standard residues stand in square brackets, D forms with d. Primed or numbered codes have the meaning given here. ξ: configuration not given here. PyrS2″ = (S)-3-amino-1-((pent-4-en-1-yloxy)carbonyl)pyrrolidine-3-carboxylic acid (stapling residue), C=CCCCOC(=O)N1CC[C@@](N[*:1])(C(=O)[*:2])C1; B5(18) = 2,2-bis(4-pentenyl)glycine (2-amino-2-(pent-4-en-1-yl)hept-6-enoic acid), stitching residue, C=CCCCC(CCCC=C)(N[*:1])C(=O)[*:2]; B5(23) = 2-amino-2-(pent-4-en-1-yl)hept-6-enoic acid (2,2-bis(4-pentenyl)glycine), stitching residue, C=CCCCC(CCCC=C)(N[*:1])C(=O)[*:2]; B5(4) = 2,2-bis(4-pentenyl)glycine = 2-amino-2-(pent-4-en-1-yl)hept-6-enoic acid (stitching residue), C=CCCCC(CCCC=C)(N[*:1])C(=O)[*:2]; TfeGA = (S)-2-amino-3-((carboxymethyl)(2,2,2-trifluoroethyl)amino)propanoic acid, O=C([C@H](CN(CC(=O)[*:3])CC(F)(F)F)N[*:1])[*:2]; PyrS2 = (S)-3-amino-1-((pent-4-en-1-yloxy)carbonyl)pyrrolidine-3-carboxylic acid, C=CCCCOC(=O)N1CC[C@@](N[*:1])(C(=O)[*:2])C1; PyrS3 = (S)-3-amino-1-((hex-5-en-1-yloxy)carbonyl)pyrrolidine-3-carboxylic acid, C=CCCCCOC(=O)N1CC[C@@](N[*:1])(C(=O)[*:2])C1; B5(7) = 2-amino-2-(pent-4-en-1-yl)hept-6-enoic acid, two olefinic side chains, C=CCCCC(CCCC=C)(N[*:1])C(=O)[*:2]; B5(3) = 2,2-bis(4-pentenyl)glycine (stitching residue), C=CCCCC(CCCC=C)(N[*:1])C(=O)[*:2]; Phe(2-Cl) = N[C@@H](Cc1ccccc1Cl)C(=O)O; Bta = N[C@@H](Cc1csc2ccccc12)C(=O)O; αAllylPro = C=CC[C@@]1(C(=O)O)CCCN1; tBuAla = CC(C)(C)C[C@H](N)C(=O)O; 3Thi = N[C@@H](Cc1ccsc1)C(=O)O; Cha = N[C@@H](CC1CCCCC1)C(=O)O; ξβ3hD = NC(CC(=O)O)CC(=O)O; Aib = CC(C)(N)C(=O)O
T1: beta-catenin in DLD1 TCF/LEF luciferase reporter cells (UniProt P35222 1-781)
T1 sequence (looked up): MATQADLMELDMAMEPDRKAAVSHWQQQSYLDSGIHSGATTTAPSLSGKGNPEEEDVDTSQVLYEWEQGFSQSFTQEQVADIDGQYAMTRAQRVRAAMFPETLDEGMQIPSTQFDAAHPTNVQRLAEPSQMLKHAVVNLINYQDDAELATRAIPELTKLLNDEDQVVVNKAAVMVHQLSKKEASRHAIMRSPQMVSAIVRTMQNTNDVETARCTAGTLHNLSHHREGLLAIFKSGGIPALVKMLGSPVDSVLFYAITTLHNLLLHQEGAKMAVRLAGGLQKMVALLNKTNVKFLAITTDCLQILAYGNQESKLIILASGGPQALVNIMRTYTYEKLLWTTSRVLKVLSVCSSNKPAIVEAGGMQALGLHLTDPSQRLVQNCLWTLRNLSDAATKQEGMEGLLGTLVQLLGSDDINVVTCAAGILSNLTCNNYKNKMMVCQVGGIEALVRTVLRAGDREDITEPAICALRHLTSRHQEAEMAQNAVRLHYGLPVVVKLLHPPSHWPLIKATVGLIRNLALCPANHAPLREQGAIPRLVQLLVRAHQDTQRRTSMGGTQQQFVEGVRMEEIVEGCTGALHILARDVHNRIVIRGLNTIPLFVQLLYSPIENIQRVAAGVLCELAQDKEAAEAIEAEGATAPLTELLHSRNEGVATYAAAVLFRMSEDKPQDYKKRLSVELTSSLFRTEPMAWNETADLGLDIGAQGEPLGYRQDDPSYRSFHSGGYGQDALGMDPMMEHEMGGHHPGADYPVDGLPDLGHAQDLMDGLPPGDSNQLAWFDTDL

T2: B-cat-Halo (NanoBRET construct expressed in HEK293 cells) (UniProt P35222 1-781, HaloTag NanoBRET 618 Ligand bound in the assay)
T2 sequence (looked up): T1 sequence (looked up)

T3: B-cat-Halo (UniProt P35222 1-781)
T3 sequence (looked up): T1 sequence (looked up)

T4: B-cat-Halo (UniProt P35222 1-781)
T4 sequence (looked up): T1 sequence (looked up)

B1: I-1002 (peptide)
peptide: Ac-[αAllylPro]D[tBuAla][B5(18)]D[TfeGA]ALFN[PyrS2″][Phe(2-Cl)][Bta]Q-NH2
modifications: staple 1-4, 4-11
B2: I-1007 (peptide)
peptide: Ac-[αAllylPro]D[tBuAla][B5(18)]D[TfeGA]LAFN[PyrS2″][Phe(2-Cl)][Bta]Q-NH2
modifications: staple 1-4, 4-11
B3: I-1001 (peptide)
peptide: Ac-[αAllylPro]D[tBuAla][B5(3)][3Thi][TfeGA]AAFN[PyrS2″]D[Bta]Q-NH2
modifications: staple 1-4, 4-11
B4: I-1016 (peptide)
peptide: Ac-[αAllylPro]D[tBuAla][B5(18)]DNAAFT[PyrS2″][Phe(2-Cl)][Bta]S-NH2
modifications: staple 1-4, 4-11
B5: I-1015 (peptide)
peptide: Ac-[αAllylPro]D[tBuAla][B5(18)]DDAAFT[PyrS2″][Phe(2-Cl)][Bta]S-NH2
modifications: staple 1-4, 4-11
B6: I-1017 (peptide)
peptide: Ac-[αAllylPro]D[tBuAla][B5(18)]DDAAFS[PyrS2″][Phe(2-Cl)][Bta]Q-NH2
modifications: staple 1-4, 4-11
B7: I-1004 (peptide)
peptide: Ac-[αAllylPro]D[tBuAla][B5(18)]D[TfeGA]ASFN[PyrS2″][Phe(2-Cl)][Bta]Q-NH2
modifications: staple 1-4, 4-11
B8: I-1008 (peptide)
peptide: Ac-[αAllylPro]D[tBuAla][B5(18)]D[TfeGA]FAFN[PyrS2″][Phe(2-Cl)][Bta]Q-NH2
modifications: staple 1-4, 4-11
B9: I-1019 (peptide)
peptide: Ac-[αAllylPro]D[tBuAla][B5(18)]DDAAFS[PyrS2″][Phe(2-Cl)][Bta]S-NH2
modifications: staple 1-4, 4-11
B10: I-1011 (peptide)
peptide: Ac-[αAllylPro]D[tBuAla][B5(18)]D[TfeGA]KAFN[PyrS2″][Phe(2-Cl)][Bta]Q-NH2
modifications: staple 1-4, 4-11
B11: I-764 (peptide)
peptide: Ac-[αAllylPro]D[tBuAla][B5(7)]DDAAFQ[PyrS2][3Thi][Bta]Q-NH2
modifications: staple 1-4, 4-11
B12: I-763 (peptide)
peptide: Ac-[αAllylPro]D[tBuAla][B5(7)]DDAAFQ[PyrS2][3Thi][Bta]Q-NH2
modifications: staple 1-4, 4-11
B13: I-770 (peptide)
peptide: Ac-[αAllylPro]D[tBuAla][B5(7)]D[TfeGA]AAFN[PyrS2][3Thi][Bta]H-NH2
modifications: staple 1-4, 4-11
B14: I-772 (peptide)
peptide: Ac-[αAllylPro]D[tBuAla][B5(7)]DDAAFQ[PyrS2][3Thi][Bta]H-NH2
modifications: staple 1-4, 4-11
B15: I-767 (peptide)
peptide: Ac-[αAllylPro]D[tBuAla][B5(7)]DDAAFN[PyrS3][3Thi][Bta]Q-NH2
modifications: staple 1-4, 4-11
B16: I-771 (peptide)
peptide: Ac-[αAllylPro]D[tBuAla][B5(7)]DDAAFQ[PyrS2][3Thi][Bta]H-NH2
modifications: staple 1-4, 4-11
B17: I-768 (peptide)
peptide: Ac-[αAllylPro]D[tBuAla][B5(7)]DDAAFN[PyrS3][3Thi][Bta]Q-NH2
modifications: staple 1-4, 4-11
B18: I-769 (peptide)
peptide: Ac-[αAllylPro]D[tBuAla][B5(7)]D[TfeGA]AAFN[PyrS2][3Thi][Bta]H-NH2
modifications: staple 1-4, 4-11
B19: I-1168 (peptide)
peptide: Ac-[αAllylPro]D[tBuAla][B5(4)]DTAAFT[PyrS2″][Phe(2-Cl)][Bta]Q-NH2
modifications: staple 1-4, 4-11
B20: I-1172 (peptide)
peptide: Ac-[αAllylPro]D[tBuAla][B5(4)]DTAAFL[PyrS2″][Phe(2-Cl)][Bta]S-NH2
modifications: staple 1-4, 4-11
B21: I-1178 (peptide)
peptide: Ac-[αAllylPro]D[tBuAla][B5(4)]DDA[Aib]FL[PyrS2″][3Thi][Bta]Q-NH2
modifications: staple 1-4, 4-11
B22: I-1161 (peptide)
peptide: Ac-[αAllylPro][ξβ3hD][tBuAla][B5(4)]D[TfeGA]AAFN[PyrS2″][3Thi][Bta]Q-NH2
modifications: staple 1-4, 4-11
B23: I-1177 (peptide)
peptide: Ac-[αAllylPro]D[tBuAla][B5(4)]DD[Aib]AFL[PyrS2″][3Thi][Bta]Q-NH2
modifications: staple 1-4, 4-11
B24: I-1173 (peptide)
peptide: Ac-[αAllylPro]D[Cha][B5(4)]DTAAFT[PyrS2″][3Thi][Bta]Q-NH2
modifications: staple 1-4, 4-11
B25: I-1170 (peptide)
peptide: Ac-[αAllylPro]D[tBuAla][B5(4)]DTAAFT[PyrS2″][3Thi][Bta]S-NH2
modifications: staple 1-4, 4-11
B26: I-1171 (peptide)
peptide: Ac-[αAllylPro]D[tBuAla][B5(4)]DTAAFL[PyrS2″][3Thi][Bta]S-NH2
modifications: staple 1-4, 4-11
B27: I-1166 (peptide)
peptide: Ac-[αAllylPro]D[tBuAla][B5(4)]DTAAFT[PyrS2″][3Thi][Bta]Q-NH2
modifications: staple 1-4, 4-11
B28: I-1175 (peptide)
peptide: Ac-[αAllylPro]D[Cha][B5(4)]DTAAFT[PyrS2″][Phe(2-Cl)][Bta]Q-NH2
modifications: staple 1-4, 4-11
B29: I-1167 (peptide)
peptide: Ac-[αAllylPro]D[tBuAla][B5(4)]DTAAFL[PyrS2″][3Thi][Bta]Q-NH2
modifications: staple 1-4, 4-11
B30: I-1174 (peptide)
peptide: Ac-[αAllylPro]D[Cha][B5(4)]DTAAFL[PyrS2″][3Thi][Bta]Q-NH2
modifications: staple 1-4, 4-11
B31: I-1557 (peptide)
peptide: Ac-[αAllylPro]D[tBuAla][B5(23)]NNAAFL[PyrS2][3Thi][Bta]Q-NH2
modifications: staple 1-4, 4-11
B32: I-1564 (peptide)
peptide: Ac-[αAllylPro]D[tBuAla][B5(23)]NTAAFN[PyrS2][3Thi][Bta]Q-NH2
modifications: staple 1-4, 4-11; also: earlier-eluting HPLC staple isomer
B33: I-1556 (peptide)
peptide: Ac-[αAllylPro]DA[B5(23)]NNAAFN[PyrS2][3Thi][Bta]Q-NH2
modifications: staple 1-4, 4-11
B34: I-1565 (peptide)
peptide: Ac-[αAllylPro]D[tBuAla][B5(23)]NTAAFN[PyrS2][3Thi][Bta]Q-NH2
modifications: staple 1-4, 4-11; not fully specified; printed as Ac-PL3-Asp-Npg-B5-Asn-Thr-Ala-Ala-Phe-Asn-PyrS2-3Thi-BztA-Gln-NH2
B35: I-1566 (peptide)
peptide: Ac-[αAllylPro]D[tBuAla][B5(23)]NQAAFN[PyrS2][3Thi][Bta]Q-NH2
modifications: staple 1-4, 4-11; also: earlier-eluting HPLC staple isomer

Target: T1, beta-catenin in DLD1 TCF/LEF luciferase …
Test: cell-based or functional assay

DLD1 reporter assay Abs IC50 [µM] | Binder
> 20 | B1
3.3 | B2
> 20 | B3
21.4 | B4
9 | B5
> 20 | B6
> 20 | B7
13 | B8
8.3 | B9
> 20 | B10

Target: T2, B-cat-Halo (NanoBRET construct …)
Test: cell-based or functional assay

NanoBRET Abs IC50 [µM] | Binder
30.9 | B11
21.3 | B12
13.7 | B13
> 20 | B14
37.2 | B15
37.3 | B16
31.4 | B17
13 | B18

Target: T3, B-cat-Halo
Test: cell-based or functional assay

NanoBRET Abs IC50 [µM] | Binder
31.4 | B19
19.4 | B20
28.8 | B21
> 20 | B22
4.3 | B23
17.2 | B24
13.5 | B25
28.8 | B26
14.6 | B27
27.3 | B28
11.7 | B29
32.6 | B30

Target: T4, B-cat-Halo
Test: cell-based or functional assay

NanoBRET Abs IC50 [µM] | Binder
> 20 | B31
> 20 | B32
> 20 | B33
> 20 | B34
> 20 | B35

Reference: patent publication US20240116985A1 (published 2024)
